According to PMC12335825:

Target: MD39 HIV Env stabilized SOSIP trimer (MD39 HIV Env gp140) (HIV)
Test: SEC-MALS; immunogens after S200 Increase size-exclusion chromatography in TBS; DAWN HELEOS II and Optilab T-rEX

“MD39 HIV Env stabilized SOSIP trimer (MD39 HIV Env gp140)” showed a stoichiometry N of 3.
